Measured values from article PMC4357711.

Columns and labels:
DDX1 (DDX1-728) [1] = biological target: T1, DDX1 (DDX1-728) (Homo sapiens, UniProt Q92499 1-728); assay: EMSA
T1 sequence: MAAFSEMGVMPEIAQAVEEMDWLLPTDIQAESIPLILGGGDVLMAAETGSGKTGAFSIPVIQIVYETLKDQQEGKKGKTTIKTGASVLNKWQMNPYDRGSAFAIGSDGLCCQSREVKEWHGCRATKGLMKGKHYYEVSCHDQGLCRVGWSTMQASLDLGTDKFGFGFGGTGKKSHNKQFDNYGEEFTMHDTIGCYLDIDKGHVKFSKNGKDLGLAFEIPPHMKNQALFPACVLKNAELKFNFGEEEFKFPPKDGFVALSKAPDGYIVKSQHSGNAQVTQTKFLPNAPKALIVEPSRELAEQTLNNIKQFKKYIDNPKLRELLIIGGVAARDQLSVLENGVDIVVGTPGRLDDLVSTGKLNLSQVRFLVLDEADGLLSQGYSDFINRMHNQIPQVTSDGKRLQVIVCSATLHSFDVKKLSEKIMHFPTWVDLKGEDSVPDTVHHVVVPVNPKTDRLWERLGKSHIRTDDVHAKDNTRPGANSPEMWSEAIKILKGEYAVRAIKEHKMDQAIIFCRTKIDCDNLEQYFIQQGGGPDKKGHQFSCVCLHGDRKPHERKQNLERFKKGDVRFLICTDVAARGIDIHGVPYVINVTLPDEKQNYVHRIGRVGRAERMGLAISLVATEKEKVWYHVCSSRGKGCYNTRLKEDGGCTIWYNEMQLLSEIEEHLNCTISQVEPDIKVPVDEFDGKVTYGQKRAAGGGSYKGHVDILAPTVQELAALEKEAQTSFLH

DDX1 (DDX1-728) [2] = biological target: T1, DDX1 (DDX1-728); assay: mantdADP displacement fluorescence titration, global fit

UUUUUUUUUU (ssRNA) [10mer polyU RNA, FAM]: binds (DDX1 (DDX1-728) [1]).

For AAAAAAAAAA (ssRNA) [10mer polyA RNA], the Kd (DDX1 (DDX1-728) [2]) was 360 ± 120 nM.

AGCACCGUAAAGA (ssRNA) [13mer mixed sequence RNA, FAM]: binds (DDX1 (DDX1-728) [1]).
